This assay has as its target T1, 人白介素22(IL22)(Sino Biological) (human, UniProt Q9GZX6 34-179).
T1 sequence (looked up): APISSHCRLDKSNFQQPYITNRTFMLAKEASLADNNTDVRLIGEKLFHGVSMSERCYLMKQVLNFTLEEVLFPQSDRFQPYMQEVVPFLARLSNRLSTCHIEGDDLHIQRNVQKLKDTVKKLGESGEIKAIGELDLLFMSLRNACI
Briefly: ELISA, IL22-coated plate (Fig 11).

B1: FezHλ-ClaH(K218C)κ(F118C) (bispecific antibody, human IgG1, lambda)
heavy 1: QVQLVQSGAEVKKPGASVKVSCKASGYTFTNYYMHWVRQAPGQGLEWVGWINPYTGSAFYAQKFRGRVTMTRDTSISTAYMELSRLRSDDTAVYYCAREPEKFDSDDSDVWGRGTLVTVSSASTKGPSVFPLAPSSKSTSGGTAALGCLVKDYFPEPVTVSWNSGALTSGVHTFPAVLQSSGLYSLSSVVTVPSSSLGTQTYICNVNHKPSNTKVDKKVEPKSCDKTHTCPPCPAPELLGGPSVFLFPPKPKDTLMISRTPEVTCVVVDVSHEDPEVKFNWYVDGVEVHNAKTKPREEQYNSTYRVVSVLTVLHQDWLNGKEYKCKVSNKALPAPIEKTISKAKGQPREPQVYTLPPSREEMTKNQVSLSCAVKGFYPSDIAVEWESNGQPENNYKTTPPVLDSDGSFFLVSKLTVDKSRWQQGNVFSCSVMHEALHNRFTQKSLSLSPGHHHHHH
light 1: QAVLTQPPSVSGAPGQRVTISCTGSSSNIGAGYGVHWYQQLPGTAPKLLIYGDSNRPSGVPDRFSGSKSGTSASLAITGLQAEDEADYYCQSYDNSLSGYVFGGGTQLTVLGQPKAAPSVTLFPPSSEELQANKATLVCLISDFYPGAVTVAWKADSSPVKAGVETTTPSKQSNNKYAASSYLSLTPEQWKSHRSYSCQVTHEGSTVEKTVAPTECS
heavy 2: not shown
light 2: AIQMTQSPSSLSASVGDRVTITCQASQSINNELSWYQQKPGKAPKLLIYRASTLASGVPSRFSGSGSGTDFTLTISSLQPDDFATYYCQQGYSLRNIDNAFGGGTKVEIKRTVAAPSVFICPPSDEQLKSGTASVVCLLNNFYPREAKVQWKVDNALQSGNSQESVTEQDSKDSTYSLSSTLTLSKADYEKHKVYACEVTHQGLSSPVTKSFNRGEV
notes: also called K218C/F118C
As to B1, the binding result is recorded as “binds”.

B2: FezHλ-ClaH(S132C)κ(F116C) (bispecific antibody, human IgG1, lambda)
heavy 1: QVQLVQSGAEVKKPGASVKVSCKASGYTFTNYYMHWVRQAPGQGLEWVGWINPYTGSAFYAQKFRGRVTMTRDTSISTAYMELSRLRSDDTAVYYCAREPEKFDSDDSDVWGRGTLVTVSSASTKGPSVFPLAPSSKSTSGGTAALGCLVKDYFPEPVTVSWNSGALTSGVHTFPAVLQSSGLYSLSSVVTVPSSSLGTQTYICNVNHKPSNTKVDKKVEPKSCDKTHTCPPCPAPELLGGPSVFLFPPKPKDTLMISRTPEVTCVVVDVSHEDPEVKFNWYVDGVEVHNAKTKPREEQYNSTYRVVSVLTVLHQDWLNGKEYKCKVSNKALPAPIEKTISKAKGQPREPQVYTLPPSREEMTKNQVSLSCAVKGFYPSDIAVEWESNGQPENNYKTTPPVLDSDGSFFLVSKLTVDKSRWQQGNVFSCSVMHEALHNRFTQKSLSLSPGHHHHHH
light 1: QAVLTQPPSVSGAPGQRVTISCTGSSSNIGAGYGVHWYQQLPGTAPKLLIYGDSNRPSGVPDRFSGSKSGTSASLAITGLQAEDEADYYCQSYDNSLSGYVFGGGTQLTVLGQPKAAPSVTLFPPSSEELQANKATLVCLISDFYPGAVTVAWKADSSPVKAGVETTTPSKQSNNKYAASSYLSLTPEQWKSHRSYSCQVTHEGSTVEKTVAPTECS
heavy 2: not shown
light 2: AIQMTQSPSSLSASVGDRVTITCQASQSINNELSWYQQKPGKAPKLLIYRASTLASGVPSRFSGSGSGTDFTLTISSLQPDDFATYYCQQGYSLRNIDNAFGGGTKVEIKRTVAAPSVCIFPPSDEQLKSGTASVVCLLNNFYPREAKVQWKVDNALQSGNSQESVTEQDSKDSTYSLSSTLTLSKADYEKHKVYACEVTHQGLSSPVTKSFNRGEV
notes: also called S132C/F116C
For the molecule B2, the binding result is listed as “binds”.
